# Square brackets hold non-standard residues; d marks the D form. Ends that are not written are not given here. * marks the point of attachment. pY = N[C@@H](Cc1ccc(OP(=O)(O)O)cc1)C(=O)O; Dansyl = CN(C)c1cccc2c(S(=O)(=O)*)cccc12
# Key:
# Settings in all cases: both partners purified
# [1] = target: T1, SH2 domain of Crkl protein (residues 1-111), wild type (UniProt P46109 1-111); assay: stopped-flow fluorescence kinetics (FRET); dansyl-Pax112-123 constant at 2 μM mixed with Crkl-SH2 2 to 10 μM (pseudo-first-order, kon); koff by displacement of the preincubated 2 µM complex with excess non-dansylated Pax112-123 (30 μM); 283 K; 50 mM sodium-acetate pH 5.5, 0.5 M NaCl
# T1 construct: Crkl adaptor protein, SH2 domain, residues 1-111; Subcloned in pET28b+; all experiments were done on the N-terminally His-tagged protein; also called Crkl-SH2; Crkl SH2 domain; source: E. coli BL21 (DE3), purified (HisTrap nickel column, desalting); not shown: His tag, N-terminal, kept
# [2] = target: T2, SH2 domain of Crkl protein (residues 1-111), H91A variant (UniProt P46109 1-111, H91A); assay: as above
# T2 construct: Crkl adaptor protein, SH2 domain, residues 1-111, His91 replaced by alanine; Site-directed mutant of m1 (QuikChange); source: E. coli BL21 (DE3), purified (HisTrap nickel column, desalting); not shown: His tag, N-terminal, kept
# [3] = target: T3, SH2 domain of Crkl protein (residues 1-111), H33A variant (UniProt P46109 1-111, H33A); assay: as above
# T3 construct: Crkl adaptor protein, SH2 domain, residues 1-111, His33 replaced by alanine; Site-directed mutant of m1 (QuikChange); source: E. coli BL21 (DE3), purified (HisTrap nickel column, desalting); not shown: His tag, N-terminal, kept
# [4] = target: T4, SH2 domain of Crkl protein (residues 1-111), H80A variant (UniProt P46109 1-111, H80A); assay: stopped-flow fluorescence kinetics (FRET); dansyl-Pax112-123 constant at 2 μM mixed with Crkl-SH2 2 to 10 μM (pseudo-first-order, kon); koff by displacement of the preincubated 2 µM complex with excess non-dansylated Pax112-123 (30 μM); 283 K; 50 mM sodium-acetate pH 5.0, 0.5 M NaCl
# T4 construct: Crkl adaptor protein, SH2 domain, residues 1-111, His80 replaced by alanine; Site-directed mutant of m1 (QuikChange); source: E. coli BL21 (DE3), purified (HisTrap nickel column, desalting); not shown: His tag, N-terminal, kept
# [5] = target: T1, SH2 domain of Crkl protein (residues …); assay: as above
# [6] = target: T3, SH2 domain of Crkl protein (residues …); assay: as above
# [7] = target: T4, SH2 domain of Crkl protein (residues …); assay: stopped-flow fluorescence kinetics (FRET); dansyl-Pax112-123 constant at 2 μM mixed with Crkl-SH2 2 to 10 μM (pseudo-first-order, kon); koff by displacement of the preincubated 2 µM complex with excess non-dansylated Pax112-123 (30 μM); 283 K; 50 mM TrisHCl pH 9.0, 0.5 M NaCl
# [8] = target: T1, SH2 domain of Crkl protein (residues …); assay: as above
# [9] = target: T2, SH2 domain of Crkl protein (residues …); assay: as above
# [10] = target: T3, SH2 domain of Crkl protein (residues …); assay: as above
# T4 sequence (P46109 1-111 H80A): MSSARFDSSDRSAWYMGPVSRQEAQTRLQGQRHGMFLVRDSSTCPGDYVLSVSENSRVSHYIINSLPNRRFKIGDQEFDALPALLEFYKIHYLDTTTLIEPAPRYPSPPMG
# T3 sequence (P46109 1-111 H33A): as the sequence (P46109 1-111 H80A) above, with H33A, A80H counted along it
# T2 sequence (P46109 1-111 H91A): as the sequence (P46109 1-111 H80A) above, with A80H, H91A counted along it
# T1 sequence (P46109 1-111): as the sequence (P46109 1-111 H80A) above, with A80H counted along it
binder,measurement,setting,value
"Dansyl-GEEEHV[pY]SFPNK (The dansyl group is the FRET acceptor of Trp14 of the SH2 domain; source: synthetic peptide, bought: GenScript) [dansylated Pax_(112–123) peptide (Dans-GEEEHV-pY-SFPNK)]",Kd,[1],3 ± 0.3 µM
same,koff,[1],25.6 ± 0.4 s⁻¹
same,kon,[1],8.4e+06 ± 700000 M⁻¹ s⁻¹
same,Kd,[2],4.3 ± 0.2 µM
same,koff,[2],24.1 ± 0.4 s⁻¹
same,kon,[2],5.6e+06 ± 300000 M⁻¹ s⁻¹
same,Kd,[3],3.4 ± 0.4 µM
same,koff,[3],22.8 ± 2.2 s⁻¹
same,kon,[3],6.7e+06 ± 400000 M⁻¹ s⁻¹
same,Kd,[4],11.5 ± 1.2 µM
same,koff,[4],52.7 ± 3.2 s⁻¹
same,kon,[4],4.6e+06 ± 400000 M⁻¹ s⁻¹
same,Kd,[5],9.5 ± 1.7 µM
same,koff,[5],49.1 ± 1.7 s⁻¹
same,kon,[5],5.2e+06 ± 900000 M⁻¹ s⁻¹
same,Kd,[6],7.6 ± 0.7 µM
same,koff,[6],33.2 ± 1.4 s⁻¹
same,kon,[6],4.4e+06 ± 300000 M⁻¹ s⁻¹
same,Kd,[7],2.8 ± 0.3 µM
same,koff,[7],34 ± 2.3 s⁻¹
same,kon,[7],1.2e+07 ± 900000 M⁻¹ s⁻¹
same,Kd,[8],2.5 ± 0.2 µM
same,koff,[8],36.1 ± 0.6 s⁻¹
same,kon,[8],1.41e+07 ± 900000 M⁻¹ s⁻¹
same,Kd,[9],2.9 ± 0.1 µM
same,koff,[9],36.4 ± 0.5 s⁻¹
same,kon,[9],1.27e+07 ± 500000 M⁻¹ s⁻¹
same,Kd,[10],4.2 ± 0.5 µM
same,koff,[10],44.7 ± 4 s⁻¹
same,kon,[10],1.06e+07 ± 1e+06 M⁻¹ s⁻¹

# — PMC9332313, “Folding and Binding Mechanisms of the SH2 Domain from Crkl” (Biomolecules, 2022)
